Results as given in patent US20230295259A1 (Protagonist Therapeutics, Inc., priority 2020, published 2023).
Where two headings read alike, the source gives them in different places. Starred links: 1 amine or outer side, 2 acyl side, 3 side chain; linkers in the order of their positions; H or OH if unused. Non-standard residues stand in square brackets, D forms with d. Groups on a side chain read outwards from the residue. *: point of attachment. Gal = N6-(4-(galactopyranosyloxy)butanoyl) on the lysine side chain; C18 diacid = O=C(O)CCCCCCCCCCCCCCCCC(=O)*; Dip = N[C@H](C(=O)O)C(c1ccccc1)c1ccccc1; γGlu = O=C(O)[C@H](CCC(=O)[*:2])N[*:1]; Palmitoyl = CCCCCCCCCCCCCCCC(=O)*; β3hF = N[C@H](CC(=O)O)Cc1ccccc1; 4Amb = NCc1ccc(C(=O)O)cc1; Isovaleryl = CC(C)CC(=O)*; NMeA = CN[C@@H](C)C(=O)O; AEEA = NCCOCCOCC(=O)O; Acryloyl = C=CC(=O)*; Ahx = NCCCCCC(=O)O

T1: human ferroportin (SLC40A1) fused in frame with GFP, stably expressed in HEK293 cells (human, UniProt Q9NP59 1-571)
T1 sequence (looked up): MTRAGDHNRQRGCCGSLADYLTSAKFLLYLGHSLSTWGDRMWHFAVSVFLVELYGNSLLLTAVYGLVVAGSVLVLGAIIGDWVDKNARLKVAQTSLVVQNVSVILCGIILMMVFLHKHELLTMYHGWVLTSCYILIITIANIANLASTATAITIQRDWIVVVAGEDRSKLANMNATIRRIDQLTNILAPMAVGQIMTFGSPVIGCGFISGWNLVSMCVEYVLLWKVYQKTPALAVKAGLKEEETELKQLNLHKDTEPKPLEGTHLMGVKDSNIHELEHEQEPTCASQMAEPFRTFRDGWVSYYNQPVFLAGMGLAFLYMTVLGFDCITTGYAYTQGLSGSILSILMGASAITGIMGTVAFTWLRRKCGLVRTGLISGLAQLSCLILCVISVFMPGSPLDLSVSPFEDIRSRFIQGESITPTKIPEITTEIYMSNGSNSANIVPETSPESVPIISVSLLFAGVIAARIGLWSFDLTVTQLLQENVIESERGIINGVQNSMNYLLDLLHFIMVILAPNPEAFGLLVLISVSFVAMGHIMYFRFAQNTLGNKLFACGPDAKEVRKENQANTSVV

B1: Seq. No. 573 (peptide)
peptide: Isovaleryl-ETH[Dip]PCA[dK][β3hF]K([Ahx-Palmitoyl])[dK]C-NH2
modifications: not fully specified (bridges); cysteine pairing not given here
B2: Seq. No. 566 (peptide)
peptide: Isovaleryl-ETH[Dip]PC[4Amb][β3hF]K([Ahx-Palmitoyl])[dK]C-NH2
modifications: not fully specified (bridges); cysteine pairing not given here
B3: Seq. No. 571 (peptide)
peptide: Isovaleryl-ETH[Dip]PC[dK][β3hF]K([Ahx-Palmitoyl])[dK]C-NH2
modifications: not fully specified (bridges); cysteine pairing not given here
B4: Seq. No. 561 (peptide)
peptide: Isovaleryl-ETH[Dip]PCK(Gal)K([AEEA-AEEA-Ahx-C18 diacid])[β3hF][dK]C-NH2
modifications: not fully specified (bridges); cysteine pairing not given here
B5: Seq. No. 568 (peptide)
peptide: Isovaleryl-ETH[Dip]PCI[dK]LK([Ahx-Palmitoyl])[dK]C-NH2
modifications: not fully specified (bridges); cysteine pairing not given here
B6: Seq. No. 574 (peptide)
peptide: Isovaleryl-ETH[Dip]ACI[dK][β3hF]K([Ahx-Palmitoyl])[dK]C-NH2
modifications: not fully specified (bridges); cysteine pairing not given here
B7: Seq. No. 572 (peptide)
peptide: Isovaleryl-ETH[Dip]PCI[dK]AK([Ahx-Palmitoyl])[dK]C-NH2
modifications: not fully specified (bridges); cysteine pairing not given here
B8: Seq. No. 577 (peptide)
peptide: Isovaleryl-ETH[Dip]PCCK([AEEA-AEEA-Ahx-C18 diacid])[β3hF][dK]-NH2
modifications: not fully specified (bridges); cysteine pairing not given here
B9: Seq. No. 556 (peptide)
peptide: Isovaleryl-ETH[Dip]PCI[dK]K(Acryloyl)K([Ahx-Palmitoyl])[dK]C-NH2
modifications: not fully specified (bridges); cysteine pairing not given here
B10: Seq. No. 563 (peptide)
peptide: XETHXPCIXXXC
modifications: not fully specified; [Isovaleric Acid]-E-T-H-[Dpa]-P-C-I-[(D)Lys]-[bhPhe]-[Lys(1PEG2_1PEG2_IsoGlu_C18_Diacid)]-C-OH
B11: Seq. No. 567 (peptide)
peptide: Isovaleryl-ETH[Dip][NMeA]CI[dK][β3hF]K([Ahx-Palmitoyl])[dK]C-NH2
modifications: not fully specified (bridges); cysteine pairing not given here
B12: Seq. No. 558 (peptide)
peptide: Isovaleryl-ETH[Dip]SCIK([AEEA-AEEA-γGlu-C18 diacid])[β3hF][dK]C-NH2
modifications: not fully specified (bridges); cysteine pairing not given here
B13: Seq. No. 560 (peptide)
peptide: Isovaleryl-ETH[Dip]PC[dK](Gal)K([AEEA-AEEA-Ahx-C18 diacid])[β3hF][dK]C-NH2
modifications: not fully specified (bridges); cysteine pairing not given here
B14: Seq. No. 553 (peptide)
peptide: Isovaleryl-ETHK(Acryloyl)PCI[dK][β3hF]K([Ahx-Palmitoyl])[dK]C-NH2
modifications: not fully specified (bridges); cysteine pairing not given here
B15: Seq. No. 575 (peptide)
peptide: Isovaleryl-ETHAPCI[dK][β3hF]K([Ahx-Palmitoyl])[dK]C-NH2
modifications: not fully specified (bridges); cysteine pairing not given here
B16: Seq. No. 555 (peptide)
peptide: Isovaleryl-ETH[Dip]PC[dK](Acryloyl)[dK][β3hF]K([Ahx-Palmitoyl])[dK]C-NH2
modifications: not fully specified (bridges); cysteine pairing not given here
B17: Seq. No. 570 (peptide)
peptide: Isovaleryl-ETHLPCI[dK][β3hF]K([Ahx-Palmitoyl])[dK]C-NH2
modifications: not fully specified (bridges); cysteine pairing not given here
B18: Seq. No. 565 (peptide)
peptide: XEXHXPCIXXXC
modifications: not fully specified; [Isovaleric Acid]-E-[N-(hydroxyethyl)Gly]-H-[Dpa]-P-C-I-[Lys(1PEG2_1PEG2_Ahx_C18_Diacid)]-[bhPhe]-[(D)Lys]-C-NH2
B19: Seq. No. 564 (peptide)
peptide: XETXXPCIXXXC
modifications: not fully specified; [Isovaleric Acid]-E-T-[N-(Imidazolethyl)Gly]-[Dpa]-P-C-I-[Lys(1PEG2_1PEG2_Ahx_C18_Diacid)]-[bhPhe]-[(D)Lys]-C-NH2
B20: Seq. No. 557 (peptide)
peptide: XXTHXPCIXXXC
modifications: not fully specified; [Isovaleric Acid]-[Dap]-T-H-[Dpa]-P-C-I-[Lys(1PEG2_1PEG2_Ahx_C18_Diacid)]-[bhPhe]-[(D)Lys]-C-NH2
B21: Seq. No. 562 (peptide)
peptide: {Cyclohexanoic Acid}-ETH[Dip]PCK([AEEA-AEEA-γGlu-C18 diacid])[β3hF][dK]C-NH2
modifications: not fully specified (bridges); cysteine pairing not given here
B22: Seq. No. 554 (peptide)
peptide: Isovaleryl-ETH[Dip]K(Acryloyl)CI[dK][β3hF]K([Ahx-Palmitoyl])[dK]C-NH2
modifications: not fully specified (bridges); cysteine pairing not given here
B23: Seq. No. 569 (peptide)
peptide: Isovaleryl-ETH[Dip]LCI[dK][β3hF]K([Ahx-Palmitoyl])[dK]C-NH2
modifications: not fully specified (bridges); cysteine pairing not given here

Columns and labels:
[1] = system: LAD2 cells; assay type: cell-based, human
From the text: In anaphylactoid reactions, the main mechanism involves the direct stimulation of mast cells or basophils, leading to the release of anaphylactic mediators such as histamine and β-hexosaminidase. A recent study by McNeil et al. (McNeil B D et al., 2015) reported that MrgprX2, a specific membrane receptor on human mast cells, induces anaphylactoid reactions. The LAD2 (Laboratory of Allergic Diseases 2) human mast cell line, derived from human mast cell sarcoma/leukemia (Kirshenbaum et al., 2003), is commonly employed to study anaphylactoid reactions, because its biological properties are identical to those of primary human mast cells, including the overexpression of the MrgprX2 receptor and sensitivity towards degranulating peptides (Kulka et al., 2008). The release of anaphylactic mediators such as f-hexosaminidase, is assessed by fluorometric quantification.
On the day of the assay, serial dilutions of compounds were added to LAD2 cells plated at 20000 cells/well in a 96-well plate. After incubation for 30 minutes, the amount of β-hexosaminidase released into the supernatants and in cell lysates was quantified using the fluorogenic substrate 4-methylumbelliferyl-N-acetyl-b-D-glucosaminide. Dose-response curves were generated by plotting the % of β-hexosaminidase release (y-axis) against the concentrations of peptides tested (x-axis). […]. (Table 2D).

[2] = target: T1, human ferroportin (SLC40A1) fused in …; assay: cell-based or functional assay
[3] = LAD2 mast cells, β-hexosaminidase release, 30 minutes incubation, read-out: EC50: LAD2

| Molecule | IC50: FPN internalisation [2] | other results |
| --- | --- | --- |
| Isovaleric Acid-E-T-H—F—P—C—I-[Lys(1PEG2_1PEG2_IsoGlu_C18_Diacid)]-F-E-P—R—S—K-G-C—K—NH2 [Compound 220] |  | EC50 [1, 3]: > 33 µM |
| Isovaleric Acid-E-T-H-F—P—C—I-[Lys(IsoGlu_Palm)]-F-E-P—R-S—K-G-C—NH2 [Compound 225] |  | EC50 [1, 3]: 4.8 µM |
| Isovaleric Acid-E-T-H—F—P—C—I-[Lys(1PEG2_1PEG2_IsoGlu_C18_Diacid)]-F-E-P—R—S—K-G-C—NH2 [Compound 206] |  | EC50 [1, 3]: > 100 µM |
| Isovaleric Acid-E-T-H—F—P—C—I-[Lys(IsoGlu_Palm)]-F-E-P—R—S—K-G-[Pen]-K—NH2 [Compound 224] |  | EC50 [1, 3]: 2.6 µM |
| Isovaleric Acid-E-T-H-[Dpa]-P—C—I-[Lys(1PEG2_1PEG2_Ahx_C18_Diacid)]-[bhPhe]-[(D)Lys]-[Pen]-NH2 [Compound 280] |  | EC50 [1, 3]: 24.3 µM |
| Isovaleric Acid-E-T-H-[Dpa]-P—C—I-[Lys(1PEG2_1PEG2_IsoGlu_C16_Diacid)]-[bhPhe]-[(D)Lys]-C—NH2 [Compound 232] |  | EC50 [1, 3]: > 100 µM |
| Isovaleric Acid-E-T-H-[Dpa]-P—C—I-[Lys(PEG4_IsoGlu_C18_Diacid)]-[bhF]-[(D)Lys]-C—NH2 [Compound 239] |  | EC50 [1, 3]: > 100 µM |
| CC[C@H](C)C1NC(=O)[C@@H](NC(=O)[C@@H]2CCCN2C(=O)[C@@H](NC(=O)[C@H](Cc2cnc[nH]2)NC(=O)[C@@H](NC(=O)[C@H](CCC(=O)O)NC(=O)CC(C)C)[C@@H](C)O)C(c2ccccc2)c2ccccc2)CSSC[C@@H](C(N)=O)NC(=O)[C@@H](CCCCN)NC(=O)C[C@H](Cc2ccccc2)CC(=O)C(CCCCNC(=O)CCOCCOCCOCCOCCOCCOCCOCCOCCOCCOCCOCCOCCNC(=O)CCCCCCCCCCCCCCCCC(=O)O)NC1=O (stereo partly shown) [Compound 113, Isovaleric Acid-E-T-H-[Dpa]-P-[Cys]-I-[Lys(2Peg11′_C18_Diacid)]-[bhPhe]-[(D)Lys]-[Cys]-NH2] |  | EC50 [1]: 27 µM |
| B1 | 6.47 nM |  |
| B2 | 31.8 nM |  |
| B3 | 31.2 nM |  |
| B4 | 17.9 nM |  |
| B5 | 11.8 nM |  |
| B6 | 10.2 nM |  |
| B7 | 8.47 nM |  |
| B8 | 2 nM |  |

| Molecule | IC50: FPN internalisation [2] | other results |
| --- | --- | --- |
| B9 | 15.4 nM |  |
| B10 | 1190 nM |  |
| B11 | 30.8 nM |  |
| B12 | 39.2 nM |  |
| B13 | 400 nM |  |
| B14 | 385 nM |  |
| B15 | 83 nM |  |
| B16 | 17.4 nM |  |
| B17 | 12.7 nM |  |
| B18 | 18.7 nM |  |
| B19 | 687 nM |  |
| B20 | 14.2 nM |  |
| B21 | 18.4 nM |  |
| B22 | 103 nM |  |
| B23 | 50.2 nM |  |
